Measured values taken from patent US20250281611A1 (BIOSCEPTRE AUST, published 2025).

T1: CD19 (UniProt P15391 20-556, limits assumed)
T1 construct: whole, on cells; also called CD19 on JeKo-1
T1 sequence (looked up): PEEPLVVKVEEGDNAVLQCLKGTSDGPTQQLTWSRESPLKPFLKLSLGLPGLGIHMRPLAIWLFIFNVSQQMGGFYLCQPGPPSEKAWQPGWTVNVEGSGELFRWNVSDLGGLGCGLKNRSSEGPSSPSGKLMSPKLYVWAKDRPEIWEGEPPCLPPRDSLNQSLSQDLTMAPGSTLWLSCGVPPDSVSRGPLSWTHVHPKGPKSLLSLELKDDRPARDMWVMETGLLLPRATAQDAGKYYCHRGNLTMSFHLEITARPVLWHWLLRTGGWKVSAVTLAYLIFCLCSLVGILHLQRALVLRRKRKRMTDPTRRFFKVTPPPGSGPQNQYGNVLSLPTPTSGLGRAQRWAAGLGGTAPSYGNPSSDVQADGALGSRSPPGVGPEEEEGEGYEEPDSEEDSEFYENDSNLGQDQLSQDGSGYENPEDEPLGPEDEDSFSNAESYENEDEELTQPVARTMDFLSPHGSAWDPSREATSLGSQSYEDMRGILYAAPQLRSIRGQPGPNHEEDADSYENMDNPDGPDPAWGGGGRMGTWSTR

B1: CD19 BRIDGE variant B21 (Fab)
heavy: EVQLVESGGGLVKPGGSLKLSCAASGYTFTSYVMHWVRQAPGKGLEWIGYINPYNDGTKYNEKFQGRVTISSDKSISTAYMELSSLRSEDTAMYYCARGTYYYGTRVFDYWGQGTLVTVSSASTKGPSVFPLAPSSKSTSGGTAALGCLVKDYFPEPVTVSWNSGALTSGVHTFPAVLQSSGLYSLSSVVTVPSSSLGTQTYICNVNHKPSNTKVDKKVEPKSCHHHHHH
light: DFPGHNYTTRNILPGLNITSGGGGSEPKSSDKTHTDIVMTQSPATLSLSPGERATLSCRSSKSLQNVNGNTYLYWFQQKPGQSPQLLIYRMSNLNSGVPDRFSGSGSGTEFTLTISSLEPEDFAVYYCMQHLEYPITFGAGTKLEIKRTVAAPSVFIFPPSDEQLKSGTASVVCLLNNFYPREAKVQWKVDNALQSGNSQESVTEQDSKDSTYSLSSTLTLSKADYEKHKVYACEVTHQGLSSPVTKSFNRGEC
B2: CD19 BRIDGE variant B30 (Fab)
heavy: B1 heavy
light: DFPGHNYTTRNILPGLNITSTFHKTSGSGKGGGGSEPKSSDKTHTGSDIVMTQSPATLSLSPGERATLSCRSSKSLQNVNGNTYLYWFQQKPGQSPQLLIYRMSNLNSGVPDRFSGSGSGTEFTLTISSLEPEDFAVYYCMQHLEYPITFGAGTKLEIKRTVAAPSVFIFPPSDEQLKSGTASVVCLLNNFYPREAKVQWKVDNALQSGNSQESVTEQDSKDSTYSLSSTLTLSKADYEKHKVYACEVTHQGLSSPVTKSFNRGEC
B3: CD19 BRIDGE variant B27 (Fab)
heavy: B1 heavy
light: DFPGHNYTTRNILPGLNITSGGGGSEPKSSDKTHTGSDIVMTQSPATLSLSPGERATLSCRSSKSLQNVNGNTYLYWFQQKPGQSPQLLIYRMSNLNSGVPDRFSGSGSGTEFTLTISSLEPEDFAVYYCMQHLEYPITFGAGTKLEIKRTVAAPSVFIFPPSDEQLKSGTASVVCLLNNFYPREAKVQWKVDNALQSGNSQESVTEQDSKDSTYSLSSTLTLSKADYEKHKVYACEVTHQGLSSPVTKSFNRGEC
B4: CD19 BRIDGE variant B23 (Fab)
heavy: B1 heavy
light: DFPGHNYTTRNILPGLNITSTFHKTSGSGKGSEPKSSDKTHTDIVMTQSPATLSLSPGERATLSCRSSKSLQNVNGNTYLYWFQQKPGQSPQLLIYRMSNLNSGVPDRFSGSGSGTEFTLTISSLEPEDFAVYYCMQHLEYPITFGAGTKLEIKRTVAAPSVFIFPPSDEQLKSGTASVVCLLNNFYPREAKVQWKVDNALQSGNSQESVTEQDSKDSTYSLSSTLTLSKADYEKHKVYACEVTHQGLSSPVTKSFNRGEC
B5: CD19 BRIDGE variant B24 (Fab)
heavy: B1 heavy
light: DFPGHNYTTRNILPGLNITSTFHKTSGSGKGGGGSEPKSSDKTHTDIVMTQSPATLSLSPGERATLSCRSSKSLQNVNGNTYLYWFQQKPGQSPQLLIYRMSNLNSGVPDRFSGSGSGTEFTLTISSLEPEDFAVYYCMQHLEYPITFGAGTKLEIKRTVAAPSVFIFPPSDEQLKSGTASVVCLLNNFYPREAKVQWKVDNALQSGNSQESVTEQDSKDSTYSLSSTLTLSKADYEKHKVYACEVTHQGLSSPVTKSFNRGEC
B6: CD19 BRIDGE variant B22 (Fab)
heavy: B1 heavy
light: DFPGHNYTTRNILPGLNITSTFHKTSGSGKEPKSSDKTHTDIVMTQSPATLSLSPGERATLSCRSSKSLQNVNGNTYLYWFQQKPGQSPQLLIYRMSNLNSGVPDRFSGSGSGTEFTLTISSLEPEDFAVYYCMQHLEYPITFGAGTKLEIKRTVAAPSVFIFPPSDEQLKSGTASVVCLLNNFYPREAKVQWKVDNALQSGNSQESVTEQDSKDSTYSLSSTLTLSKADYEKHKVYACEVTHQGLSSPVTKSFNRGEC
B7: CD19 BRIDGE variant B29 (Fab)
heavy: B1 heavy
light: DFPGHNYTTRNILPGLNITSTFHKTSGSGKGSEPKSSDKTHTGSDIVMTQSPATLSLSPGERATLSCRSSKSLQNVNGNTYLYWFQQKPGQSPQLLIYRMSNLNSGVPDRFSGSGSGTEFTLTISSLEPEDFAVYYCMQHLEYPITFGAGTKLEIKRTVAAPSVFIFPPSDEQLKSGTASVVCLLNNFYPREAKVQWKVDNALQSGNSQESVTEQDSKDSTYSLSSTLTLSKADYEKHKVYACEVTHQGLSSPVTKSFNRGEC
B8: CD19 BRIDGE variant B28 (Fab)
heavy: B1 heavy
light: DFPGHNYTTRNILPGLNITSTFHKTSGSGKEPKSSDKTHTGSDIVMTQSPATLSLSPGERATLSCRSSKSLQNVNGNTYLYWFQQKPGQSPQLLIYRMSNLNSGVPDRFSGSGSGTEFTLTISSLEPEDFAVYYCMQHLEYPITFGAGTKLEIKRTVAAPSVFIFPPSDEQLKSGTASVVCLLNNFYPREAKVQWKVDNALQSGNSQESVTEQDSKDSTYSLSSTLTLSKADYEKHKVYACEVTHQGLSSPVTKSFNRGEC
B9: CD19 BRIDGE variant B26 (Fab, V domains shown)
VH: EVQLVESGGGLVKPGGSLKLSCAASGYTFTSYVMHWVRQAPGKGLEWIGYINPYNDGTKYNEKFQGRVTISSDKSISTAYMELSSLRSEDTAMYYCARGTYYYGTRVFDYWGQGTLVTVSS
VL: DIVMTQSPATLSLSPGERATLSCRSSKSLQNVNGNTYLYWFQQKPGQSPQLLIYRMSNLNSGVPDRFSGSGSGTEFTLTISSLEPEDFAVYYCMQHLEYPITFGAGTKLEIKR

Biological target: T1, CD19
Assay: flow cytometry, JeKo-1 cells, anti-His-FITC detection, MFI over no-bridge control
Procedure: (§1) JeKo-1 cells were incubated with different CD19 BRiDGE variants at saturating concentrations. […] The MFI intensity correlates with the number of secondary bound antibodies bound to the CD19 BRiDGE variants that are only detected if they are bound to the JeKo-1 cells. MFI: median fluorescence intensity. BLitz: Bio-Layer interferometry (BLI) technology using HIS-tag identification tips. […] The higher the MFIR, the stronger the binding.

Row | MFIR HisTag FITC | Binder
1 | 3.32 | B1
2 | 3.05 | B2
3 | 3.25 | B3
4 | 3.1 | B4
5 | 3.21 | B5
6 | 3.3 | B6
7 | 3.03 | B7
8 | 3.09 | B8
9 | 3.06 | B9

Biological target: T1, CD19
Assay: flow cytometry, JeKo-1 cells, bridge at saturating conc., BIL03s-AF647 detection
Procedure: as §1

Row | MFI Bil03 AF647 | Binder
10 | 4.06 | B1
11 | 7.48 | B2
12 | 9.6 | B3
13 | 6.82 | B4
14 | 8.45 | B5
15 | 4.85 | B6
16 | 7.44 | B7
17 | 8.78 | B8
18 | 5.53 | B9

Biological target: T2, nfP2X7 CAR 1
T2 construct: CAR-positive cells gated by the co-expressed EGFR marker; also called nfP2X7 targeted CAR; nfP2X7 CAR on EGFR+ T cells
Assay: flow cytometry, anti-His-FITC, MFI on EGFR+ (CAR+) over EGFR- (CAR-) T cells
Outline: (§2)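 CAR T cells incubated with BRiDGE variants at saturating concentrations; bound BRiDGE detected with anti-His-FITC by flow cytometry. EGFR marks CAR expression. Value is median fluorescence intensity on EGFR+ (CAR+) cells divided by that on EGFR− (CAR−) cells.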

Row | HisTag MFI Ratio of EGFR+/EGFR- | Binder
19 | 4.1 | B1
20 | 4.3 | B2
21 | 4.1 | B3
22 | 4.4 | B4
23 | 3.9 | B5
24 | 4 | B6
25 | 4.2 | B7
26 | 4.2 | B8
27 | 4.2 | B9

Biological target: T2, nfP2X7 CAR 1
Assay: flow cytometry, anti-His-FITC, MFI on EGFR+ (CAR+) T cells over background 0.44
Outline: as §2

Row | HisTag MFI Ratio (background 0.44) | Binder
28 | 5 | B1
29 | 4.8 | B2
30 | 5.3 | B3
31 | 5.3 | B4
32 | 4.8 | B5
33 | 5 | B6
34 | 5.1 | B7
35 | 5.1 | B8
36 | 4.9 | B9

Biological target: T1, CD19
Assay: flow cytometry, JeKo-1 cells, BIL03s-AF647 detection, MFI over no-bridge control
Procedure: as §1

Row | MFIR BIL03 AF647 | Binder
37 | 8.83 | B1
38 | 16.3 | B2
39 | 20.9 | B3
40 | 14.8 | B4
41 | 18.4 | B5
42 | 10.5 | B6
43 | 16.2 | B7
44 | 19.1 | B8
45 | 12 | B9

Biological target: T1, CD19
Assay: flow cytometry, JeKo-1 cells, bridge at saturating conc., anti-His-FITC detection
Procedure: as §1

Row | MFI HisTag FITC | Binder
46 | 2.56 | B1
47 | 2.35 | B2
48 | 2.5 | B3
49 | 2.39 | B4
50 | 2.47 | B5
51 | 2.54 | B6
52 | 2.33 | B7
53 | 2.38 | B8
54 | 2.36 | B9

Biological target: T2, nfP2X7 CAR 1
Assay: flow cytometry, nfP2X7 CAR 1 T cells (EGFR+ gate), anti-His-FITC detection

Row | MFI HisTag FITC in EGFR+ Population | Binder
55 | 2.19 | B1
56 | 2.12 | B2
57 | 2.35 | B3
58 | 2.34 | B4
59 | 2.13 | B5
60 | 2.21 | B6
61 | 2.25 | B7
62 | 2.24 | B8
63 | 2.17 | B9
